± gives the uncertainty stated by the source.
Assay: self-splicing fitness, log relative to wild type (ln ratio); higher = more splicing; Tetrahymena group I intron in knt gene, E. coli kanamycin selection, DiMSum; sequences stand for … in CUCUCU…GGAGGGAAAAGUUAUCAGGCAUGCACCUGGUAGCUAGUCUUUAAACCAAUAGAUUGCAUCGGUUUAAAAGGCAAGACCGUCAAAUUGCGGGAAAGGGGUCAACAGCCGUUCAGUACCAAGUCUCAGGGGAAACUUUGAGAUGGCCUUGCAAAGGGUAUGGUAAUAAGCUGACGGACAUGGUCCUAACCACGCAGCCAAGUCCUAAGUCAACAGAUCUUCUGUUGAUAUGGAUGCAGUUCACAGACUAAAUGUCGGUCGGGGAAGAUGUAUUCUUCUCAUAAGAUAUAGUCGGACCUCUCCUUAAUGGGAGCUAGCGGAUGAAGUGAUGCAACACUGGAGCCGCUGGGAACUAAUUUGUAUGCGAAAGUAUAUUGAUUAGUUUUGGAGUACUCGUGGUCG
Procedure, shortened: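 Library with all eight P1ex-region intron nucleotides randomised, intron inside the knt kanamycin-resistance gene on pET-22b(+), in E. coli BL21(DE3). Cells grew overnight at 37°C or 30°C on LB agar with or without 25 μg/mL kanamycin (plus 100 μg/mL carbenicillin, 50 μM IPTG, 0.2% rhamnose), in six replicate transformations. Pooled colonies were amplicon-sequenced on Illumina HiSeq 2500. DiMSum fitness is the error-weighted combination of wild-type-normalised replicate fold changes, kanamycin versus none.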

| Sequence | self-splicing fitness (ln) (30 °C) | self-splicing fitness (ln) (37 °C) |
| --- | --- | --- |
| UCAAAGCAAUAUUACGAACA | -1.41 ± 0.18 | -0.524 ± 0.15 |
| UCAAAGCAAUAUUACGACUU | -4 ± 0.23 | -2.36 ± 0.17 |
| UCAAAGCAAUAUUACGAGGG | -2.11 ± 0.12 | -1.03 ± 0.12 |
| UCAAAGCAAUAUUACGAGUU | -4.25 ± 0.31 | -2.28 ± 0.19 |
| UCAAAGCAAUAUUACGCAGG | -4.07 ± 0.2 | -2.2 ± 0.14 |
| UCAAAGCAAUAUUACGCCCA | -1.32 ± 0.14 | -0.49 ± 0.16 |
| UCAAAGCAAUAUUACGCCGC | -3.89 ± 0.39 | -1.67 ± 0.42 |
| UCAAAGCAAUAUUACGCCGG | -0.974 ± 0.13 | 0.015 ± 0.15 |
| UCAAAGCAAUAUUACGCGUA | -0.554 ± 0.1 | -0.355 ± 0.099 |
| UCAAAGCAAUAUUACGCUCC | – | -2.37 ± 0.48 |
| UCAAAGCAAUAUUACGGAAG | -2.03 ± 0.17 | -2.38 ± 0.28 |
| UCAAAGCAAUAUUACGGACG | -1.16 ± 0.079 | -0.282 ± 0.1 |
| UCAAAGCAAUAUUACGGCAG | -1.24 ± 0.12 | 0.177 ± 0.16 |
| UCAAAGCAAUAUUACGGCUU | -5.11 ± 0.45 | -2.32 ± 0.2 |
| UCAAAGCAAUAUUACGGGAA | -1.5 ± 0.15 | -0.928 ± 0.16 |
| UCAAAGCAAUAUUACGGGCA | -0.629 ± 0.063 | -0.273 ± 0.069 |
| UCAAAGCAAUAUUACGGGUC | -3.59 ± 0.23 | -3.14 ± 0.25 |
| UCAAAGCAAUAUUACGGUGU | -2.8 ± 0.11 | -1.31 ± 0.099 |
| UCAAAGCAAUAUUACGUAGA | -1.47 ± 0.082 | -0.85 ± 0.098 |
| UCAAAGCAAUAUUACGUAGC | -4 ± 0.31 | -2.52 ± 0.27 |
| UCAAAGCAAUAUUACGUCAU | -2.36 ± 0.14 | -2.71 ± 0.2 |
| UCAAAGCAAUAUUACGUCCA | -1.19 ± 0.13 | -0.715 ± 0.13 |
| UCAAAGCAAUAUUACGUGAC | -3.36 ± 0.12 | -2.15 ± 0.16 |
| UCAAAGCAAUAUUACGUGAU | -3.95 ± 0.17 | -2.64 ± 0.21 |
| UCAAAGCAAUAUUACGUUGG | -3.81 ± 0.18 | -3 ± 0.24 |

| Sequence | self-splicing fitness (ln) (30 °C) | self-splicing fitness (ln) (37 °C) |
| --- | --- | --- |
| UCAAAGCAAUAUUACGUUGU | -3.4 ± 0.13 | -2.02 ± 0.12 |
| UCACAGCAAUAUUACGAACA | -1.58 ± 0.1 | -1.64 ± 0.11 |
| UCACAGCAAUAUUACGAACG | -1.61 ± 0.18 | -1.19 ± 0.21 |
| UCACAGCAAUAUUACGAAGA | -1.18 ± 0.085 | -1.09 ± 0.093 |
| UCACAGCAAUAUUACGAAUC | – | -1.26 ± 0.17 |
| UCACAGCAAUAUUACGACUA | -1.21 ± 0.14 | -0.431 ± 0.12 |
| UCACAGCAAUAUUACGAGUC | -2.97 ± 0.15 | -3.01 ± 0.2 |
| UCACAGCAAUAUUACGAUCA | -1.45 ± 0.091 | -0.503 ± 0.088 |
| UCACAGCAAUAUUACGAUGA | -1.29 ± 0.1 | -0.136 ± 0.11 |
| UCACAGCAAUAUUACGCGAC | -3.43 ± 0.21 | -2.51 ± 0.26 |
| UCACAGCAAUAUUACGCGCG | -0.645 ± 0.089 | -0.233 ± 0.11 |
| UCACAGCAAUAUUACGCUCA | -1.61 ± 0.14 | -0.171 ± 0.12 |
| UCACAGCAAUAUUACGCUGU | -2.88 ± 0.16 | -2.19 ± 0.24 |
| UCACAGCAAUAUUACGGAUC | -4.77 ± 0.46 | -3.11 ± 0.33 |
| UCACAGCAAUAUUACGGCCA | -1.78 ± 0.28 | -1.19 ± 0.21 |
| UCACAGCAAUAUUACGGGAG | -3.75 ± 0.17 | -3.24 ± 0.22 |
| UCACAGCAAUAUUACGGUGU | -2.41 ± 0.17 | -2.23 ± 0.14 |
| UCACAGCAAUAUUACGUAUG | -0.949 ± 0.063 | -1.54 ± 0.099 |
| UCACAGCAAUAUUACGUCAU | -3.09 ± 0.17 | -1.43 ± 0.12 |
| UCACAGCAAUAUUACGUGCU | -3.75 ± 0.19 | -2.72 ± 0.15 |
| UCACAGCAAUAUUACGUGUA | -2.2 ± 0.089 | -1.09 ± 0.088 |
| UCAGAGCAAUAUUACGACAA | – | -2.96 ± 0.49 |
| UCAGAGCAAUAUUACGACUC | -2.63 ± 0.22 | -2.31 ± 0.26 |
| UCAGAGCAAUAUUACGAUCA | -3.07 ± 0.35 | -2.6 ± 0.31 |
| UCAGAGCAAUAUUACGCAGG | – | 0.137 ± 0.42 |

| Sequence | self-splicing fitness (ln) (30 °C) | self-splicing fitness (ln) (37 °C) |
| --- | --- | --- |
| UCAGAGCAAUAUUACGCCUG | -3.63 ± 0.3 | – |
| UCAGAGCAAUAUUACGCGUG | -2.31 ± 0.16 | -2.05 ± 0.15 |
| UCAGAGCAAUAUUACGCUUG | -2.27 ± 0.14 | -0.868 ± 0.12 |
| UCAGAGCAAUAUUACGGAGC | -3.49 ± 0.36 | -1.44 ± 0.36 |
| UCAGAGCAAUAUUACGGAGG | -3.4 ± 0.27 | -2.33 ± 0.34 |
| UCAGAGCAAUAUUACGGCAC | – | -2.09 ± 0.33 |
| UCAGAGCAAUAUUACGGGAG | -2.82 ± 0.21 | -2.14 ± 0.34 |
| UCAGAGCAAUAUUACGGGUA | -3.47 ± 0.27 | -2.64 ± 0.31 |
| UCAGAGCAAUAUUACGGUCU | -1.95 ± 0.2 | -2.43 ± 0.39 |
| UCAGAGCAAUAUUACGUGCA | -2.3 ± 0.16 | -2.1 ± 0.18 |
| UCAUAGCAAUAUUACGAAAA | -2.62 ± 0.48 | – |
| UCAUAGCAAUAUUACGAUAG | -3.22 ± 0.19 | -1.79 ± 0.13 |
| UCAUAGCAAUAUUACGAUGA | -2.65 ± 0.18 | -0.815 ± 0.11 |
| UCAUAGCAAUAUUACGCACG | -2.05 ± 0.11 | -0.462 ± 0.13 |
| UCAUAGCAAUAUUACGCACU | -3.19 ± 0.25 | -3.18 ± 0.32 |
| UCAUAGCAAUAUUACGCAUC | -3.59 ± 0.3 | -3.1 ± 0.33 |
| UCAUAGCAAUAUUACGCAUG | -4.52 ± 0.27 | -2.77 ± 0.23 |
| UCAUAGCAAUAUUACGCCUA | -2.62 ± 0.34 | -1.85 ± 0.27 |
| UCAUAGCAAUAUUACGCUGA | -2.32 ± 0.26 | -1.85 ± 0.28 |
| UCAUAGCAAUAUUACGGAGC | -2.3 ± 0.29 | -3.14 ± 0.4 |
| UCAUAGCAAUAUUACGGAUA | -1.51 ± 0.23 | -2.59 ± 0.33 |
| UCAUAGCAAUAUUACGGAUU | -3.52 ± 0.12 | -3.06 ± 0.16 |
| UCAUAGCAAUAUUACGGCAA | -2.25 ± 0.13 | -1.14 ± 0.1 |
| UCAUAGCAAUAUUACGGUGC | -2.88 ± 0.21 | -3.08 ± 0.26 |
| UCAUAGCAAUAUUACGUAAA | -2.76 ± 0.19 | -1.99 ± 0.21 |

| Sequence | self-splicing fitness (ln) (30 °C) | self-splicing fitness (ln) (37 °C) |
| --- | --- | --- |
| UCAUAGCAAUAUUACGUAUG | -3.28 ± 0.16 | -2.09 ± 0.11 |
| UCAUAGCAAUAUUACGUGAG | -1.1 ± 0.081 | -0.39 ± 0.11 |
| UCAUAGCAAUAUUACGUGUG | -1.8 ± 0.068 | -1.84 ± 0.075 |
| UCAUAGCAAUAUUACGUUAU | -3.05 ± 0.14 | -2.21 ± 0.16 |
| UCAUAGCAAUAUUACGUUCA | -1.73 ± 0.1 | -1.57 ± 0.1 |
| UCAUAGCAAUAUUACGUUCC | – | -1.99 ± 0.29 |
| UCAUAGCAAUAUUACGUUCG | -1.03 ± 0.098 | -0.686 ± 0.1 |
| UCAUAGCAAUAUUACGUUGG | -4.13 ± 0.46 | -1.05 ± 0.24 |
| UCCAAGCAAUAUUACGAAGC | -2.87 ± 0.25 | -1.93 ± 0.21 |
| UCCAAGCAAUAUUACGACAA | -2.14 ± 0.13 | -1.47 ± 0.1 |
| UCCAAGCAAUAUUACGACUA | -1.2 ± 0.12 | 0.12 ± 0.1 |
| UCCAAGCAAUAUUACGAGCG | -1.96 ± 0.081 | -0.978 ± 0.099 |
| UCCAAGCAAUAUUACGCAAA | -2.18 ± 0.24 | -0.843 ± 0.17 |
| UCCAAGCAAUAUUACGCAGU | -2.03 ± 0.082 | -0.856 ± 0.093 |
| UCCAAGCAAUAUUACGCCUA | -0.968 ± 0.12 | 0.0562 ± 0.1 |
| UCCAAGCAAUAUUACGCUGG | -4.72 ± 0.28 | -1.81 ± 0.18 |
| UCCAAGCAAUAUUACGCUUC | -3.36 ± 0.15 | -4.24 ± 0.2 |
| UCCAAGCAAUAUUACGGACU | -3.5 ± 0.21 | -2.28 ± 0.18 |
| UCCAAGCAAUAUUACGGCUC | -3.84 ± 0.37 | – |
| UCCAAGCAAUAUUACGGGGU | -2.76 ± 0.11 | -1.96 ± 0.13 |
| UCCAAGCAAUAUUACGGGUG | -1.63 ± 0.05 | -0.583 ± 0.06 |
| UCCAAGCAAUAUUACGGUGA | -0.389 ± 0.054 | 0.493 ± 0.077 |
| UCCAAGCAAUAUUACGGUGU | -0.788 ± 0.047 | 0.18 ± 0.066 |

— the supplement of paper PMC7877785
